Reference: patent JP2011160681A

Legend:
[1] = molecular target: InfA peptide (GMVDGWYG) (Influenza A virus); assay: ITC (summary in the description)
[2] = molecular target: InfA peptide (GMVDGWYG) (Influenza A virus); assay: ITC, 25 °C, peptide titrated into antibody

B1: InfA-15 monoclonal antibody (antibody, V domains shown)
VH: QVQLKESGPGLVAPSQSLSITCTVSGFSLTKSGLHWVRQPPGKGLEWLGVIWAGGSTDYNSALTSRLTITKDNSKSQIFFRLNSLQTADTAMYYCVRSTFLYAMDFWGQGTSVTVS
VL: DAVMTQTPLSLPVSLGDQASISCRSSPSLEHSNGNTYLNWYLQKPGQSPQLLIYRVSNRFSGVPDRFSGSGSGTDFTLKISRVEAEDLGVYFCLQVTHVPPTFGGGTKLEIKRA
結合定数 (order of magnitude, unit M as printed) [1]: 1000 nM
Ka [2]: 8.6e+06 M⁻¹
